Assay results as given in patent US20200353078A1 (AstraZeneca / MedImmune, published 2020).
Each block holds one binder with its values, some of them ahead of it.

Legend:
Human IL-33 Flag®His [1] = target: T1, Human IL-33 Flag®His (human); assay: cell-based or functional assay
T1 chain: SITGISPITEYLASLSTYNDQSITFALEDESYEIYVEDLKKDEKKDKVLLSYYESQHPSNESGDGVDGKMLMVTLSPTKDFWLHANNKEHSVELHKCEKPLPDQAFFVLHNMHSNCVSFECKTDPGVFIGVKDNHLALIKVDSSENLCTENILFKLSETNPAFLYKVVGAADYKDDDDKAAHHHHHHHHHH

Human IL-33 Flag®His [2] = target: T1, Human IL-33 Flag®His; assay: HTRF competition, IgG titrated against biotinylated human ST2-Fc
Protocol: (§1) The ability of anti-IL-33 antibodies to inhibit the binding of FLAG®-His tagged IL-33 to the ST2 receptor was assessed in a biochemical HTRF® (Homogeneous Time-Resolved Fluorescence, Cisbio International) competition assay, the principles of which are described above.
(§2) Activity of purified IgG preparations were determined by competing a dilution series of the purified IgG against biotinylated human or mouse ST2.Fc for binding to FLAG® His-tagged human, cynomolgus or mouse IL-33.
(§3) Purified or unpurified anti-IL-33 antibody samples were tested for inhibition of FLAG®-His tagged IL-33 binding ST2-Fc by adding 10 microlitres of each dilution of antibody test sample to a 384 well low volume assay plate (Costar 3676). Next, a solution containing 4 nM biotinylated human or mouse ST2-Fc and 20 nM streptavidin XL665 detection (Cisbio International, 611SAXLB) was prepared and 5 microlitres of the mix added to the assay plate. This was followed by the addition of 5 microlitres of a solution containing 1.2 nM FLAG®-His tagged human, cynomolgus or mouse IL-33 combined with 1.72 nM anti-FLAG® cryptate detection (Cisbio International, 61FG2KLB). All dilutions were performed in assay buffer comprised of Dulbeccos PBS (Invitrogen, 14190185) containing 0.8 M potassium fluoride (BDH 103444T) and 0.1% BSA (Sigma A9576). Assay plates were incubated for 2 hour at room temperature followed by 16 hour at 4° C. before reading time resolved fluorescence at 620 nm and 665 nm emission wavelengths using an EnVision plate reader (Perkin Elmer).

[3] = target: T2, Cynomolgus IL-33 Flag®His (cynomolgus monkey); assay: as above
T2 construct: C-terminal FLAG 10xHis tag, E. coli; also called Mature Cynomolugus IL-33; cyno IL-33 FH
T2 chain: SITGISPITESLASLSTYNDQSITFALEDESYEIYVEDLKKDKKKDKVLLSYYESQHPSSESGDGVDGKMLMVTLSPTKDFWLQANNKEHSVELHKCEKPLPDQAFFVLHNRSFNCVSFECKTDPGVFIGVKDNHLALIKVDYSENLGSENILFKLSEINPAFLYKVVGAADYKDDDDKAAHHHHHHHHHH
Protocol: as §1, §2, §3

Human IL-33 Flag®His [4] = target: T1, Human IL-33 Flag®His; assay: SPR BIAcore 2000, IgG captured on Protein G', IL-33 as analyte, 1:1 Langmuir
Protocol: (§4) The binding affinity of purified IgG samples of exemplary binding members to human and cynomolgus IL-33 was determined by surface plasmon resonance using BIAcore 2000 biosensor (BIAcore AB) essentially as described by Karlsson et al., J Immunol Methods 145(1-2):229-40 (1991). In brief, Protein G′ (Sigma Aldrich, P4689) was covalently coupled to the surface of a CM5 sensor chip using standard amine coupling reagents according to manufacturer's instructions (BIAcore). The protein G′ surface was used to capture purified anti-IL-33 antibodies via the Fc domain to provide a surface density of approximately 290 RU per cycle. Human or cynomolgus IL-33 prepared in HBS-EP buffer (BIAcore AB), at a range of concentrations, between 600 nM and 18.75 nM, were passed over the sensor chip surface. The surface was regenerated using two 10 mM Glycine washes of pH 1.7 and pH 1.5 between each injection of antibody. The resulting sensorgrams were evaluated using BIA evaluation 3.1 software and fitted to a 1:1 Langmuir binding model, to provide relative binding data. The binding results (KD, Ka, and Kd) for antibodies IL330002 and IL330004 binding to human or cynomolgus IL-33 are shown in Table 8.

[5] = target: T2, Cynomolgus IL-33 Flag®His; assay: as above
Protocol: as §4

33_640237-2B IgG1 = target: T3, 33_640237-2B IgG1; assay: HTRF: unlabelled test protein competes with biotinylated human IL33-01 for DyLight650 labelled 33_640237-2B IgG
T3 construct: IgG1
Protocol: Human, cyno and mouse IL-33 FLAG® His (described in Example 1 and Table 21), Human IL-1 alpha and IL-1 beta (R&D Systems) (Table 21) or rat IL-33 (GenScript) were tested for inhibition of human IL-33 binding to DyLight650 labelled 33_640087-7B or DyLight650 labelled 33_640237-2B by adding 5 microlitres of each dilution of sample to a 384 well low volume assay plate (Costar, 3673). […] This was followed by the addition of 2.5 microlitres of a solution containing 0.12 nM biotinylated human IL-33-01 combined with 0.75 nM streptavidin cryptate detection (Cisbio International, 610SAKLB). All dilutions were performed in assay buffer containing 0.8 M potassium fluoride (VWR, 26820.236) and 0.1% bovine serum albumin (BSA, PAA, K05-013) in Dulbeccos PBS (Invitrogen, 14190185). Assay plates were incubated for 4 hours at room temperature followed by 18 hours at 4 degrees Celsius and time resolved fluorescence was read at 620 nm and 665 nm emission wavelengths using an EnVision plate reader (Perkin Elmer). Data were analysed by calculating the 665/620 nm ratio followed by the % Delta F values for each sample. The 665/620 nm ratio was used to correct for sample interference using Equation 1. The % Delta F for each sample was then calculated using Equation 2. The negative control (non-specific binding) was defined by replacing biotinylated human IL-33 combined with streptavidin cryptate detection with streptavidin cryptate detection only. The % Delta F values were subsequently used to calculate % specific binding as described in Equation 3. IC₅₀ values were determined using GraphPad Prism software by curve fitting using a four-parameter logistic equation (Equation 4).

Human ST2 ECD-Flag-his10 = target: T4, Human ST2 ECD-Flag-his10 (human, UniProt Q01638 19-328); assay: SPR Biacore T100, 25 C, biotinylated human IL-33 on streptavidin C1 chip, ST2-Flag-His10 as analyte
T4 construct: also called Human ST2 Flag His; FLAG® His-tagged human ST2
T4 sequence: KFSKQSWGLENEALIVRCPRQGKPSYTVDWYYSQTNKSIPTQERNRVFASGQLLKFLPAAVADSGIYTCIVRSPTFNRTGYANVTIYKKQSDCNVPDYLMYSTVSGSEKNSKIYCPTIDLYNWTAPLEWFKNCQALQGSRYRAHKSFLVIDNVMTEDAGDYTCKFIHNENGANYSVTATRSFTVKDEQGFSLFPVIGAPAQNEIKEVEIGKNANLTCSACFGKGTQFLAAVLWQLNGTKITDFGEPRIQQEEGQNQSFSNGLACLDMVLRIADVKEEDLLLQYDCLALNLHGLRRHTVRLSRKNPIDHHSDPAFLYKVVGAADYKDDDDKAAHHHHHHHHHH
Protocol: Fab fragments were generated by papain cleavage from full length IgG1 and purified by SEC. […] Streptavidin was covalently immobilised to a C1 chip surface using standard amine coupling techniques at a concentration of […] in 10 mM Sodium acetate pH 4.5. […] Recombinant, enzymatically biotinylated human IL-33 (produced in-house) was titrated onto the streptavidin chip surface at […] in HBS-EP+ buffer to enable ˜30 RUs of Fab binding at saturation (Rmax). This low level of analyte binding ensured minimal mass transport effects.
The IL-33 Fab was serially diluted from 5 nM to 78 pM in HBS-EP+ buffer and flowed over the chip at 50 μl/min, with 3 minutes association and up to 30 minutes dissociation. Multiple buffer only injections were made under the same conditions to allow for double reference subtraction of the final sensorgram sets, which were analysed using the BiaEval software (version 2.0.1). The chip surface was fully regenerated with pulses of 3M MgCl₂.
The affinity of ST2-Flag-His10 (SEQ. ID no. 650) expressed in HEK-EBNA cells for human IL-33 was determined by BIACORE™ using the same methods described above.

[6] = target: T5, Human IL-33 (Axxora/Adipogen AG-40B-0038) (human, UniProt O95760 112-270, limits assumed); assay: cell-based or functional assay
T5 sequence (looked up): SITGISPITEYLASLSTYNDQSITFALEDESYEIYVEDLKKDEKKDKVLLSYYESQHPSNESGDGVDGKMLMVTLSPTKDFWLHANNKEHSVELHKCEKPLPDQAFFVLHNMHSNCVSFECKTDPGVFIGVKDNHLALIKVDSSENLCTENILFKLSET

[7] = target: T5, Human IL-33 (Axxora/Adipogen …); assay: HTRF epitope competition: unlabelled IgG against DyLight labelled H338L293 for biotinylated human IL-33
[8] = target: T5, Human IL-33 (Axxora/Adipogen …); assay: cell-based or functional assay; remark: listed apart in the source

B3: Mouse IL-33 Flag®His (ligand)
chain: SIQGTSLLTQSPASLSTYNDQSVSFVLENGCYVINVDDSGKDQEQDQVLLRYYESPCPASQSGDGVDGKKLMVNMSPIKDTDIWLHANDKDYSVELQRGDVSPPEQAFFVLHKKSSDFVSFECKNLPGTYIGVKDNQLALVEEKDESCNNIMFKLSKINPAFLYKVVGAADYKDDDDKAAHHHHHHHHHH
notes: C-terminal FLAG 10xHis tag, E. coli; also called Mature Mouse IL-33_FH; mouse IL-33 FH
- binding result (33_640237-2B IgG1): no binding (tested: about 10^-5.5 M)

B5: H338L293 IgG1 (as in Table 13) (antibody, V domains shown)
VH: EVQLLESGGGLVQPGGSLRLSCAASGFTFSSYAMSWVRQAPGKGLEWVSAISPREGWQYYADSVKGRFTISRDNSKNTLYLQMNSLRAEDTAVYYCVRVVAGYFDSWGRGTLVTVSS
VL: SYVLTQPPSVSVSPGQTARITCSGDALPKQYAHWYQQKPGQAPALVIYKDTERPSGIPERFSGSSSGTTVTLTISGVQAEDEADYYCMSSDPSGASRVFGGGTKVTVL
notes: IgG1
- Huvec IL-6 production, maximum inhibition [6]: ~70%
- Mast cell IL-6 production, inhibition [6]: 100%
- IC50 (read off the curve) [7]: ~1 nM
- IC50, Huvec IL-6 production [8]: 1.9 nM
- IC50, Mast cell IL-6 production [8]: 1.7 nM

B7: IL330396 IgG1 (antibody, V domains shown)
VH: EVQLLESGGGLVQPGGSLRLSCAASGFTFSSYAMSWVRQAPGKGLEWVSASTPWQGSTYYADSVKGRFTISRDNSKNTLYLQMNSLRAEDTAVYYCVRWYWGWIDSWGRGTLVTVSS
VL: SYVLTQPPSVSVSPGQTARITCSGDALPKQYAHWYQQKPGQAPALVIYKDTERPSGIPERFSGSSSGTTVTLTISGVQAEDEADYYCMSSDDTGASRVFGGGTKVTVL
notes: IgG1; also called IL3300396
- Huvec IL-6 production, maximum inhibition [6]: ~70%
- Mast cell IL-6 production, inhibition [6]: 100%
- IC50 (read off the curve) [7]: ~1 nM

The remaining lines, values ahead:

- IC50, human ST2 transfected HeLa NFkB luciferase reporter assay (Human IL-33 Flag®His [1]): 226 nM
- IC50 (Human IL-33 Flag®His [2]): 59 nM
- IC50 [3]: 375 nM
B1: IL330071 IgG1 (antibody, V domains shown)
VH: EVQLVESGAEVKQPGASVKVSCKASGYTFTSYGISWVRQAPGQGLEWMGWISAYNGNTNYAQKLQGRVTMTTDTSTSTAYMELRSLRSDDTAVYYCARRGFYHDAFDIWGRGTTVTVSS
VL: AIQLTQSPSSLSASVGDRVTITCRASQGISNYLAWYQQKPGKVPKLLIYAASTLQSGVPSRFSGSGSGTEFTLTISSLQPDDFATYYCQQYNSYSVTFGQGTKVEIK
notes: Human IgG1, lambda constant

- IC50, human ST2 transfected HeLa NFkB luciferase reporter assay (Human IL-33 Flag®His [1]): 226 nM
- IC50 (Human IL-33 Flag®His [2]): 27 nM
- IC50 [3]: 42 nM
- Kd (Human IL-33 Flag®His [4]): 35 nM
- koff (Human IL-33 Flag®His [4]): 0.00218 s⁻¹
- kon (Human IL-33 Flag®His [4]): 61600 M⁻¹ s⁻¹
- Kd [5]: 189 nM
- koff [5]: 0.00442 s⁻¹
- kon [5]: 23400 M⁻¹ s⁻¹
B2: IL330002 IgG1 (antibody, V domains shown)
VH: not shown
VL: SYELTQPPSLSVSPGQTASITCSGDKLGDKYVSWYQQKPGQSPILVIYHDNKRPSGIPERFSGSNSGNTATLTISGTQAMDEADYYCQAWDSNAGYVFGTGTKVTVL
notes: Human IgG1, lambda constant

- Kd (Human ST2 ECD-Flag-his10): 0.0029 nM
- koff (Human ST2 ECD-Flag-his10): 4.35e-05 s⁻¹
- kon (Human ST2 ECD-Flag-his10): 1.52e+07 M⁻¹ s⁻¹
B4: Recombinant human IL-33 (construct not named in the example) (ligand, UniProt O95760 112-270, looked up)
chain: SITGISPITEYLASLSTYNDQSITFALEDESYEIYVEDLKKDEKKDKVLLSYYESQHPSNESGDGVDGKMLMVTLSPTKDFWLHANNKEHSVELHKCEKPLPDQAFFVLHNMHSNCVSFECKTDPGVFIGVKDNHLALIKVDSSENLCTENILFKLSET
notes: also called Recombinant, enzymatically biotinylated human IL-33 (produced in-house); IL-33 (200 nM)

- Huvec IL-6 production, maximum inhibition [6]: ~70%
- Mast cell IL-6 production, inhibition [6]: 100%
- IC50 (read off the curve) [7]: ~1 nM
B6: IL330388 IgG1 (antibody, V domains shown)
VH: EVQLLESGGGLVQPGGSLRLSCAASGFTFSSYAMSWVRQAPGKGLEWVSASTPWQGSTYYADSVKGRFTISRDNSKNTLYLQMNSLRAEDTAVYYCVRWYWGWIDSWGRGTLVTVSS
VL: SYVLTQPPSVSVSPGQTARITCSGDALPKQYAHWYQQKPGQAPALVIYKDTERPSGIPERFSGSSSGTTVTLTISGVQAEDEADYYCMSSDPSGASRVFGGGTKVTVL
notes: IgG1; also called IL3300388
